Test results: article PMC4562626

Assay: TIRF total EGFP fluorescence in adhered membrane
Conditions: glycan lost; control: wild type Kv1.1-EGFP

B1: Kv1.1: N207Q (protein)
parent chain: MTVMSGENADEASAAPGHPQDGSYPRQADHDDHECCERVVINISGLRFETQLKTLAQFPNTLLGNPKKRMRYFDPLRNEYFFDRNRPSFDAILYYYQSGGRLRRPVNVPLDMFSEEIKFYELGEEAMEKFREDEGFIKEEERPLPEKEYQRQVWLLFEYPESSGPARVIAIVSVMVILISIVIFCLETLPELKDDKDFTGTIHRIDNTTVIYTSNIFTDPFFIVETLCIIWFSFELVVRFFACPSKTDFFKNIMNFIDIVAIIPYFITLGTEIAEQEGNQKGEQATSLAILRVIRLVRVFRIFKLSRHSKGLQILGQTLKASMRELGLLIFFLFIGVILFSSAVYFAEAEEAESHFSSIPDAFWWAVVSMTTVGYGDMYPVTIGGKIVGSLCAIAGVLTIALPVPVIVSNFNYFYHRETEGEEQAQLLHVSSPNLASDSDLSRRSSSTISKSEYMEIEEDMNNSIAHYRQANIRTGNCTATDQNCVNKSKLLTDV
With B1 the expression_or_secretion was “no change”.
